Experimental data as given in the supplement of paper PMC9170038.

Tested on: MS2 coat protein
Experiment: apparent KD of MS2 coat protein; designed switch direction (-1 OFF switch, 1 ON switch): -1; higher = weaker reporter binding
In short: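 The apparent KD reported per design is the median over clusters of curve fits to normalised cluster fluorescence. The RNA switches were transcribed on Illumina chips by stalled E. coli RNA polymerase. SNAP-549-labelled MS2 coat protein was titrated from 0.7 or 1.5 nM, doubling up to 3 µM, in Tris-HCl pH 7.5 buffer containing KCl, MgCl2, BSA, DTT, tRNA and Tween-20, with no input, 200 uM small-molecule ligand, or an oligonucleotide input.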

[1] = input ligand: microRNA oligo, concentration not stated
[2] = Eterna round: R95, input ligand: microRNA oligo, concentration not stated

Sequence	apparent KD of MS2 coat protein (input ligand: FMN 200 uM) [nM]	apparent KD of MS2 coat protein [1] [nM]	apparent KD of MS2 coat protein (input ligand: none) [nM]	other results
AUGAUGCAGUGAGGAUAUACAUGAGGAUCACCCAUGUUUUUUUUUUUAGAUACACUCCUUUUUUUGUAGAAGGCACUAUGAGUA [Skinny design] (Eterna round: R96, puzzle: Exclusion NG 2)	121	24	46.3	–
AUGAUGUGAGGAUAUUAGUAGGGUAGCAGAUGACUGCCUAAUAAGAAGGCACAUGAGGAUCACCCAUGUUCACU [Eternabot (L2) Solution 11] (Eterna round: R97, puzzle: Exclusion 4)	135	–	63.5	–
AUGCGUGGCUAGGAUAUUGAGGAAUUUAGCCAGCGAGAAGGAGCCACAUGAGGAUCACCCAUGUGGUGAACCUC [jl-ex6-4.60 ViennaUCT mod] (Eterna round: R97, puzzle: Exclusion 6)	17.7	–	18.5	–
AUGCUCCGUGUAGGAUAUCGCCGUAUCACUCGGCGAGAAGGACAUGAGGAUCACCCAUGUAUGUUAUUAUCACGUGUGGCGCGC [Design 45] (Eterna round: R96, puzzle: Exclusion NG 1)	55.2	14.8	18.3	–
AUGGAACAUGAGGAUCACCCAUGUGAGGAUAUGUGAGAAGGAUUUGAGAUGGAGAGGGACAGAAGGCACUAGGA [JR_Exclu1_Sub082] (puzzle: Exclusion 1)	–	–	–	apparent KD of MS2 coat protein [2]: 37.6 nM
AUGGGUACUUUCGGAACGACAUGAGGAUCACCCAUGUAUACUGAGGAUAUCCACUACUAAGGACGGGAGAAGGCAGUGUACUGU [Ex NG3 #80] (Eterna round: R96, puzzle: Exclusion NG 3)	27	12.1	18.5	–
AUGGGUACUUUCGGAGCGACAUGAGGAUCACCCAUGUAUAUUGAGGAUAUCCACUACUAAGGACGGGAGAAGGCAGUGUACUGU [Ex NG3 #81] (Eterna round: R96, puzzle: Exclusion NG 3)	53.3	29.2	46.4	–
AUGGGUCCUCACGGAGCUACAUGAGGAUCACCCAUGUGUAUUGAGGAUAUCCACUGCCGACGGCUGGAGAAGGCAGUGUACUGU [Ex NG3 #93] (Eterna round: R96, puzzle: Exclusion NG 3)	97.8	61.5	109	–
AUGGGUCCUCUCGGAGCGACAUGAGGAUCACCCAUGUGUGUUGAGGAUAUCCACUGCUCAGGACGGGAGAAGGCAGUGUACUGU [Ex NG3 #86] (Eterna round: R96, puzzle: Exclusion NG 3)	55.9	32.5	48.8	–
AUGGGUCCUUUCGGAGCGACAUGAGGAUCACCCAUGUGUGUUGAGGAUAUCCACUGCUAAGGACGGGAGAAGGCAGUGUACUGU [Ex NG3 #84] (Eterna round: R96, puzzle: Exclusion NG 3)	36.2	26.7	49.4	–
AUGGUACAUGAGGAUCACCCAUGUUAGGAUAUCGCGUGAUCUAAAACUAAGAGACACACGAGAAGGGACGACAU (puzzle: Exclusion 1)	–	–	–	apparent KD of MS2 coat protein [2]: 128 nM
AUGGUAUUAGGAUAUACAUGAGGAUCACCCAUGUGGCAUCAUGCGGUGCCGACCUACUGUAGAAGGAGUGUAAA [Eternabot (L1) Solution 64] (Eterna round: R97, puzzle: Exclusion 3)	51.3	–	59	–
AUGUACCGGUGAGGAUAUUUUUAAUAGAACUUUAUGAUAUACAUGAGGAUCACCCAUGUUACUUUAAAGAAGGCAUCGGAUUAA [Mat - Exclusion NG 2 - Mod of JL - D85] (Eterna round: R96, puzzle: Exclusion NG 2)	–	13.8	–	–
AUGUGCACGCUGCGAUCCUACAUGAGGAUCACCCAUGUGGUCUGGUGGCGUGGGUCACCGGACUUGGCUCGUCUUGC [salish99_S_TOV1_R5_074] (Eterna round: R97, puzzle: Sensor, turn-off variant 1)	28.1	–	27.6	–
AUGUGCACGCUGCGGUCCUACAUGAGGAUCACCCAUGUGGUCUGGUGGCGUGGGUCACCGGACUUGGCUCGUCUUGG [salish99_S_TOV1_R5_057] (Eterna round: R97, puzzle: Sensor, turn-off variant 1)	22.4	–	24.3	–
AUGUGCACGCUGCGGUCCUACAUGAGGAUCACCCAUGUGGUCUGGUGGCGUGGGUCGCCGGACUUGGCUCGUCUUGA [salish99_S_TOV1_R5_029] (Eterna round: R97, puzzle: Sensor, turn-off variant 1)	17.9	–	18.2	–
AUGUGUAUAGUGAGGAUAUUGCCCAGGAAAUAGGGCAAGAAGGCACAUGAGGAUCACCCAUGUGGAUGUUCUGA [Eternabot (L2) Solution 85] (Eterna round: R97, puzzle: Brourd's mod of Exclusion 4)	412	–	37.5	–

Sequence	apparent KD of MS2 coat protein (input ligand: FMN 200 uM) [nM]	apparent KD of MS2 coat protein [1] [nM]	apparent KD of MS2 coat protein (input ligand: none) [nM]	other results
AUGUUAUUGGAAGGAUAUAGUUUACUAUUCUAACAUGAGGAUCACCCAUGUAACCUUAUGUGUAUCUAGAAGGUCCAUAACUUA (Eterna round: R96, puzzle: Exclusion NG 2)	–	46.4	–	–
AUGUUAUUGGAAGGAUAUGGUUUACUAUCCUAACAUGAGGAUCACCCAUGUAACCUUAUGUGUAUCCAGAAGGUCCAUAACUUA (Eterna round: R96, puzzle: Exclusion NG 2)	51.9	22.8	32.2	–
AUGUUGCGAGGAUAUAUAAGGGUAUAUUCUUAAGAUAUGGAACAUGAGGAUCACCCAUGUAGAAGGUGCAUAAC [JR_Ex2_Sub043] (Eterna round: R97, puzzle: Exclusion 2)	79.1	–	73	–
AUUAAAAUAUAGGAUAUCGAAUUUAUUAUUUAACGAGAAGGAUGAACAUGAGGAUCACCCAUGUGGUAUCAUGG [Mat - Exclusion 6 - JL Mod - D35] (puzzle: Exclusion 6)	–	–	–	apparent KD of MS2 coat protein (Eterna round: R95, input ligand: FMN 200 uM): 177 nM; apparent KD of MS2 coat protein [2]: 156 nM; apparent KD of MS2 coat protein (Eterna round: R95, input ligand: none): 189 nM
AUUAAACAUGUAGGAUAUGCGUGGCAAAGCUAUGCAGAAGGACAUGAGGAUCACCCAUGUAAAAGCGUCUGAGUACAGAUGCAA [Mat - Exclusion NG 1 - Mod of JL - D87] (Eterna round: R96, puzzle: Exclusion NG 1)	374	61.5	62.9	–
AUUAAACAUGUAGGAUAUGCGUGGCGAAGCUAUGCAGAAGGACAUGAGGAUCACCCAUGUUUUAGCGUCUGCGUACAGAUGCAA [JL ENG1 1.38] (Eterna round: R96, puzzle: Exclusion NG 1)	218	17.8	30.3	–
AUUAAGCAGCAGGAUAUAAGUAUCUAAAGGUGGUUAGAAGGGCUGACAUGAGGAUCACCCAUGUGCUCUUCGUG [Reusat] (puzzle: Exclusion 6)	–	–	–	apparent KD of MS2 coat protein [2]: 13.3 nM
AUUAAGCAGCAGGAUAUAAUUAUCUGAAGGUGGUUAGAAGGGCUGACAUGAGGAUCACCCAUGUGCUCUUCGUG [Diries] (puzzle: Exclusion 6)	–	–	–	apparent KD of MS2 coat protein [2]: 14.7 nM
AUUAAUCAGCAGGAUAUAAGUAUCUGAUGGUGGUUAGAAGGGCUGACAUGAGGAUCACCCAUGUGCUCUUCGUG [Beusbi] (puzzle: Exclusion 6)	–	–	–	apparent KD of MS2 coat protein [2]: 11.1 nM
AUUAAUCAUGUAGGAUAUGCGUGGCGAAGCUAUGCAGAAGGACAUGAGGAUCACCCAUGUUCUAGCGUCUGCGUACAGAUGCUA [JL ENG1 1.37] (Eterna round: R96, puzzle: Exclusion NG 1)	349	29.5	37.6	–
AUUAGUAAUAAGGAUAUCACUAGCCUCGGCUAGUGAGAAGGUAUUACAUGAGGAUCACCCAUGUGAUCAAUUAA [E6/3-A2] (Eterna round: R97, puzzle: Exclusion 6)	287	–	474	–
AUUAUACAUGUAGGAUAUCUGCACGAUUAGUGCAGAGAAGGACAUGAGGAUCACCCAUGUAGAUCAAUAAUAAUUAAUUUAAUU [ENG1/6-B1] (Eterna round: R96, puzzle: Exclusion NG 1)	500	122	156	–
AUUAUAUAGAAAGGAUAUAGAUUAUUAUUUUAACAUGAGGAUCACCCAUGUAGCCUUAUGUAUAACUAGAAGGUUCAUUUAUUA [Title] (Eterna round: R96, puzzle: Exclusion NG 2)	–	57.9	–	–
AUUAUAUAGACAGGAUAUUGAUUAUUAUUUUAACAUGAGGAUCACCCAUGUAGCCUUAUGUAUAACAAGAAGGGUCAUUUAUUA [Title] (Eterna round: R96, puzzle: Exclusion NG 2)	–	124	–	–
AUUAUAUAGUAAGGAUAUUGAUUAUUAUUUUAACAUGAGGAUCACCCAUGUAGCCUUAUGUAUAACAAGAAGGUACAUUUAUUA [Title] (Eterna round: R96, puzzle: Exclusion NG 2)	–	44.5	–	–
AUUAUGUGAGGAUAUUAGUAGUAAAUGAAUAAAAUUAUUACUGAGAAGGCACAUGAGGAUCACCCAUGUUCCUU [Mat - Exclusion 4 - Eli Mod - D6] (Eterna round: R97, puzzle: Exclusion 4)	155	–	18.1	–
AUUAUUACAUAGGAUAUAAAAGAGCUCACUCAGUUAGAAGGAUGUACAUGAGGAUCACCCAUGUGAUUCUGGCU [Eternabot (L2) Solution 58] (Eterna round: R97, puzzle: Exclusion 6)	26.3	–	25.2	–
